# According to paper doi:10.1101/2021.01.08.425994 (bioRxiv, 2021):
# B1: CLOCK:BMAL1 PAS domain core (PAS-AB domain heterodimer), biotinylated (complex)
# chain 1: ASEIRQDWKPTFLSNEEFTQLMLEALDGFFLAIMTDGSIIYVSESVTSLLEHLPSDLVDQSIFNFIPEGEHSEVYKILSTHLLESDSLTPEYLKSKNQLEFCCHMLRGTIDPKEPSTYEYVRFIGNFKSLTSVSTSTHNGFEGTIQRTHRPSYEDRVCFVATVRLATPQFIKEMCTVEEPNEEFTSRHSLEWKFLFLDHRAPPIIGYLPFEVLGTSGYDYYHVDDLENLAKCHEHLMQYGKGKSCYYRFLTKGQQWIWLQTHYYITYHQWNSRPEFIVCTHTVVSYAEVRAERRRELGIEESL
# chain 2: not shown
# Biological target: T1, His-tagged mouse CRY2 D325H PHR domain (residues 1-512) (mouse, UniProt Q9R194 1-512, D325H)
# T1 sequence (looked up): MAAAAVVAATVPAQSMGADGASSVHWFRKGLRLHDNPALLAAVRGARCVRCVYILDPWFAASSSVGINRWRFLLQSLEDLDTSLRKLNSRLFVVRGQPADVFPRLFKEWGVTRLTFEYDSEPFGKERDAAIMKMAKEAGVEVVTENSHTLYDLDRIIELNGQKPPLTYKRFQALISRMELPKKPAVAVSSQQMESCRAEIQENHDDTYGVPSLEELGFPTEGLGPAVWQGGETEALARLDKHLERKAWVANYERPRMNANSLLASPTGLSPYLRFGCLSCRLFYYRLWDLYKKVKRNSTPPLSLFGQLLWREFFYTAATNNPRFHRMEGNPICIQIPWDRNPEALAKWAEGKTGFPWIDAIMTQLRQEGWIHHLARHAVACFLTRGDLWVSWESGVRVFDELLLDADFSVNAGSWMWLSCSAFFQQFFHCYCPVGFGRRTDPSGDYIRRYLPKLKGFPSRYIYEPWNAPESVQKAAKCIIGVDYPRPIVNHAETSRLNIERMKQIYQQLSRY
# Assay: BLI
binder,measurement,value
B1,Kd,1.8 µM
